Source: patent EP1808439A2

Biological target: epiligrin-ECM^t (trypsin-treated HFK-ECM) (human) (UniProt Q16787)
Experiment: cell-based or functional assay

Chain of UniProt Q16787 (Q16787 other isoform, or with tags, fused parts or gaps): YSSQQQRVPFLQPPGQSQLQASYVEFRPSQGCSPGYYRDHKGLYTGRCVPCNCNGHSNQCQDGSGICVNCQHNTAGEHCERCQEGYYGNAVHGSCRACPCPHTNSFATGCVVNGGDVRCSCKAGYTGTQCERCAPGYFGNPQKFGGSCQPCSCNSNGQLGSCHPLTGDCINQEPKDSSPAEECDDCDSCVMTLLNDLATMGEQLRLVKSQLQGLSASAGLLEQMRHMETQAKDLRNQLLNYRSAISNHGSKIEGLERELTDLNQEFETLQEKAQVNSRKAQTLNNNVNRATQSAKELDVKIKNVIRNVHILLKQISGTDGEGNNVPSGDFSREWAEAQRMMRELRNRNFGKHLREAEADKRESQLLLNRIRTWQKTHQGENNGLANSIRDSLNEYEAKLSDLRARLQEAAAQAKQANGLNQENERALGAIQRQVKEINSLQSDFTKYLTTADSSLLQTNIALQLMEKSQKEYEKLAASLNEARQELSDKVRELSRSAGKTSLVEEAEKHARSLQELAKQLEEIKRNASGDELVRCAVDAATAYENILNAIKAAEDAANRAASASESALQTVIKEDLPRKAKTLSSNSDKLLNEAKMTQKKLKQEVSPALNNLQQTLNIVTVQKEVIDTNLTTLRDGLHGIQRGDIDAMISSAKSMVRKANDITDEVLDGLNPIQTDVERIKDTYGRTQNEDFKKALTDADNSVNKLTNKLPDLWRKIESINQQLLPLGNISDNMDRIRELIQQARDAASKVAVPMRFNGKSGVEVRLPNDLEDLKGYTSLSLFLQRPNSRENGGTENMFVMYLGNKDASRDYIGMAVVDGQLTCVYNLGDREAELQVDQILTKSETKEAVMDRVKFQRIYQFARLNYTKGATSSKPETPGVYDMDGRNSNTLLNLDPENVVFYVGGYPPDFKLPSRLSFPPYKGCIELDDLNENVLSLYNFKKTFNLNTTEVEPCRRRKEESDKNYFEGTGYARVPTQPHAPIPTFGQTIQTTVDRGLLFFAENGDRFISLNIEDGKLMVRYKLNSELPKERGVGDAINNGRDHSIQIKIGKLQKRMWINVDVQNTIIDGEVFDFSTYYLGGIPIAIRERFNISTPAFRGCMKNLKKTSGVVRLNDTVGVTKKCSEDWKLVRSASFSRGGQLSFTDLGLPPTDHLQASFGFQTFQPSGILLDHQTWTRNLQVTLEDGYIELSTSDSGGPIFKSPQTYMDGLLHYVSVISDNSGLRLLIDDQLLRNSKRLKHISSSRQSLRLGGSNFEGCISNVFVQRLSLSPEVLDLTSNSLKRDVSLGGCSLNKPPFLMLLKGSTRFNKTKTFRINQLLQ

% adherent cells, 51Cr-labelled HFK on epiligrin-ECM^t, 4°C, 0 min: 30% | % adherent cells, 51Cr-labelled HFK on epiligrin-ECM^t, 4°C, 2 min: 28% | % adherent cells, 51Cr-labelled HFK on epiligrin-ECM^t, 4°C, 5 min: 28% | % adherent cells, 51Cr-labelled HFK on epiligrin-ECM^t, 4°C, 10 min: 25% | % adherent cells, 51Cr-labelled HFK on epiligrin-ECM^t, 4°C, 15 min: 37% | % adherent cells, 51Cr-labelled HFK on epiligrin-ECM^t, 4°C, 25 min: 35% | % adherent cells, 51Cr-labelled HFK on epiligrin-ECM^t, 4°C, 30 min: 31% | % adherent cells, 51Cr-labelled HFK on epiligrin-ECM^t, 4°C, 45 min: 30% | % adherent cells, 51Cr-labelled HFK on epiligrin-ECM^t, 4°C, 60 min: 35% | % adherent cells, 51Cr-labelled HFK on epiligrin-ECM^t, 37°C, 0 min: 0% | % adherent cells, 51Cr-labelled HFK on epiligrin-ECM^t, 37°C, 2 min: 10% | % adherent cells, 51Cr-labelled HFK on epiligrin-ECM^t, 37°C, 5 min: 10% | % adherent cells, 51Cr-labelled HFK on epiligrin-ECM^t, 37°C, 10 min: 20% | % adherent cells, 51Cr-labelled HFK on epiligrin-ECM^t, 37°C, 15 min: 26% | % adherent cells, 51Cr-labelled HFK on epiligrin-ECM^t, 37°C, 25 min: 36% | % adherent cells, 51Cr-labelled HFK on epiligrin-ECM^t, 37°C, 30 min: 38% | % adherent cells, 51Cr-labelled HFK on epiligrin-ECM^t, 37°C, 45 min: 50% | % adherent cells, 51Cr-labelled HFK on epiligrin-ECM^t, 37°C, 60 min: 60%
Substance: integrin α6β4, P23229 24-1130; P16144 28-1822
